This is an account of results in PMC6669743.

The assay addresses HAdV-5T* virion (mutant HAdV-5 unable to bind to human or murine FX) (human adenovirus 5) (UniProt P04133). In words: co-sedimentation; 2 x 10^11 vp of virus incubated with 250 uL C57BL/6 mouse serum for 30 min at 37 C; virions and bound proteins purified by CsCl gradient ultracentrifugation without cross-linking; LC-MS/MS with label-free quantification normalised to hexon.

Turning to “complement component C4b (mouse) (from UniProt P01029) (natural protein)”, the fold change of bound amount against HAdV-5 was 87.8 fold.
In the case of “complement component C3 (mouse) (from UniProt P01027) (natural protein)” it was 40.2 fold.
